According to paper PMC11760825, “Prohibitin 1 tethers lipid membranes and regulates OPA1-mediated membrane fusion” (The Journal of Biological Chemistry, 2024):

Biological target: the molecule itself
Test: cell-based or functional assay

B1: recombinant human prohibitin 1 (PHB1), C-terminally histidine-tagged, wild type (natural protein, UniProt P35232 1-272, looked up)
chain: MAAKVFESIGKFGLALAVAGGVVNSALYNVDAGHRAVIFDRFRGVQDIVVGEGTHFLIPWVQKPIIFDCRSRPRNVPVITGSKDLQNVNITLRILFRPVASQLPRIFTSIGEDYDERVLPSITTEILKSVVARFDAGELITQRELVSRQVSDDLTERAATFGLILDDVSLTHLTFGKEFTEAVEAKQVAQQEAERARFVVEKAEQQKKAAIISAEGDSKAAELIANSLATAGDGLIELRKLEAAEDIAYQLSRSRNITYLPAGQSVLLQLPQ
- OPA1-mediated liposome fusion (FRET lipid mixing; 0.5 μM L-OPA1 with 2 μM PHB1 against L-OPA1 alone; fusion activity from the first 2 min): ~3 fold
